The values that follow come from publication PMC2428073, “Architecture of a Serine Recombinase-DNA Regulatory Complex” (Molecular Cell, 2008).

Values joined by “and” are separate entries in the source; they are usually repeats but may differ in a detail not shown here. Equal values may be shown once.

As usually defined, the stoichiometry N is the number of molecules, sites or subunits per partner or assembly.

The target in series [1] is T1, Sin recombinase (pI9789 Sin) (Staphylococcus aureus (multiresistance …, UniProt P20384 1-202)).
T1 sequence: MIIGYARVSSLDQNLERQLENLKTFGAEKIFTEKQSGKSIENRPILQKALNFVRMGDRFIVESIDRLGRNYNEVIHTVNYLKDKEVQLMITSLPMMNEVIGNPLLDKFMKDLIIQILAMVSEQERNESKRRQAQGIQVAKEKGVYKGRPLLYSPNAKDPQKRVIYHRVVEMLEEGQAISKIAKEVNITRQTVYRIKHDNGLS
Nature of the series: X-ray crystallography (MAD/SIRAS, 3.21 A); Crystal structure; protein stored in 25 mM Tris pH 7.5, 0.5 mM EDTA, 400 mM (NH4)2SO4, 20% glycerol; DNA annealed in 100 mM NaCl; crystallization conditions not in the material. Particulars: protein: recombinant; tags: His6 (C-terminal); chain copies: 2; overhanging AT dinucleotides pairing with adjacent duplexes.

Series [2] concerns the molecule itself. Description: crystal structure; WT Sin cocrystallized with a 29 bp site II DNA duplex (2:1.25 molar ratio), hanging drop, 25 mM TRIS pH 7.5, (NH4)2SO4; two DNA-bound Sin dimers per asymmetric unit; 3.21 Å.

B1: Sin res site II 29 bp duplex (dsDNA)
DNA 1: AACGTATGATTAGGGTGTATATTAATTTATA
DNA 2: TAAATTAATATACACCCTAATCATACGTTTA
modifications: 5-Br-dU and iodine-labelled versions used for phasing
Take B1: the binding result in series [1] is “binds”.

B2: Wild-type His6-tagged pI9789 Sin (enzyme, S. aureus, UniProt P20384 1-202, looked up)
chain: MIIGYARVSSLDQNLERQLENLKTFGAEKIFTEKQSGKSIENRPILQKALNFVRMGDRFIVESIDRLGRNYNEVIHTVNYLKDKEVQLMITSLPMMNEVIGNPLLDKFMKDLIIQILAMVSEQERNESKRRQAQGIQVAKEKGVYKGRPLLYSPNAKDPQKRVIYHRVVEMLEEGQAISKIAKEVNITRQTVYRIKHDNGLS
notes: Sin resolvase (serine recombinase family) encoded by S. aureus plasmid pI9789; the crystal holds 836 Sin residues in four monomers (209 each, with the tag); The last nine residues, which contain the His6 tag, are not seen in the model; In the in vivo synapsis assay WT Sin was expressed from pSA9944 (also with a C-terminal His6 tag) in E. coli DS941; also called WT Sin; Sin resolvase; source: E. …
As to B2, the “stoichiometry N” value in series [2] is 2 and 4.
